Results: patent publication US7470669B2, “Isolated polypeptide comprising a leptin fragment” (Serono Genetics Institute, S.A., priority 1999, dated 2008)

Columns and labels:
[1] = target: LDL-receptor (Homo sapiens, UniProt P01130); experiment: Degradation of LDL by the LDL-receptor; type: cell-based; conditions: leptin up to 2 μg/mL
[2] = target: LRP (Homo sapiens, UniProt Q07954); experiment: Degradation of activated α2-macroglobulin (LRP ligand); type: cell-based; conditions: leptin up to 2 μg/mL
Chain of LRP (Q07954 20-4544): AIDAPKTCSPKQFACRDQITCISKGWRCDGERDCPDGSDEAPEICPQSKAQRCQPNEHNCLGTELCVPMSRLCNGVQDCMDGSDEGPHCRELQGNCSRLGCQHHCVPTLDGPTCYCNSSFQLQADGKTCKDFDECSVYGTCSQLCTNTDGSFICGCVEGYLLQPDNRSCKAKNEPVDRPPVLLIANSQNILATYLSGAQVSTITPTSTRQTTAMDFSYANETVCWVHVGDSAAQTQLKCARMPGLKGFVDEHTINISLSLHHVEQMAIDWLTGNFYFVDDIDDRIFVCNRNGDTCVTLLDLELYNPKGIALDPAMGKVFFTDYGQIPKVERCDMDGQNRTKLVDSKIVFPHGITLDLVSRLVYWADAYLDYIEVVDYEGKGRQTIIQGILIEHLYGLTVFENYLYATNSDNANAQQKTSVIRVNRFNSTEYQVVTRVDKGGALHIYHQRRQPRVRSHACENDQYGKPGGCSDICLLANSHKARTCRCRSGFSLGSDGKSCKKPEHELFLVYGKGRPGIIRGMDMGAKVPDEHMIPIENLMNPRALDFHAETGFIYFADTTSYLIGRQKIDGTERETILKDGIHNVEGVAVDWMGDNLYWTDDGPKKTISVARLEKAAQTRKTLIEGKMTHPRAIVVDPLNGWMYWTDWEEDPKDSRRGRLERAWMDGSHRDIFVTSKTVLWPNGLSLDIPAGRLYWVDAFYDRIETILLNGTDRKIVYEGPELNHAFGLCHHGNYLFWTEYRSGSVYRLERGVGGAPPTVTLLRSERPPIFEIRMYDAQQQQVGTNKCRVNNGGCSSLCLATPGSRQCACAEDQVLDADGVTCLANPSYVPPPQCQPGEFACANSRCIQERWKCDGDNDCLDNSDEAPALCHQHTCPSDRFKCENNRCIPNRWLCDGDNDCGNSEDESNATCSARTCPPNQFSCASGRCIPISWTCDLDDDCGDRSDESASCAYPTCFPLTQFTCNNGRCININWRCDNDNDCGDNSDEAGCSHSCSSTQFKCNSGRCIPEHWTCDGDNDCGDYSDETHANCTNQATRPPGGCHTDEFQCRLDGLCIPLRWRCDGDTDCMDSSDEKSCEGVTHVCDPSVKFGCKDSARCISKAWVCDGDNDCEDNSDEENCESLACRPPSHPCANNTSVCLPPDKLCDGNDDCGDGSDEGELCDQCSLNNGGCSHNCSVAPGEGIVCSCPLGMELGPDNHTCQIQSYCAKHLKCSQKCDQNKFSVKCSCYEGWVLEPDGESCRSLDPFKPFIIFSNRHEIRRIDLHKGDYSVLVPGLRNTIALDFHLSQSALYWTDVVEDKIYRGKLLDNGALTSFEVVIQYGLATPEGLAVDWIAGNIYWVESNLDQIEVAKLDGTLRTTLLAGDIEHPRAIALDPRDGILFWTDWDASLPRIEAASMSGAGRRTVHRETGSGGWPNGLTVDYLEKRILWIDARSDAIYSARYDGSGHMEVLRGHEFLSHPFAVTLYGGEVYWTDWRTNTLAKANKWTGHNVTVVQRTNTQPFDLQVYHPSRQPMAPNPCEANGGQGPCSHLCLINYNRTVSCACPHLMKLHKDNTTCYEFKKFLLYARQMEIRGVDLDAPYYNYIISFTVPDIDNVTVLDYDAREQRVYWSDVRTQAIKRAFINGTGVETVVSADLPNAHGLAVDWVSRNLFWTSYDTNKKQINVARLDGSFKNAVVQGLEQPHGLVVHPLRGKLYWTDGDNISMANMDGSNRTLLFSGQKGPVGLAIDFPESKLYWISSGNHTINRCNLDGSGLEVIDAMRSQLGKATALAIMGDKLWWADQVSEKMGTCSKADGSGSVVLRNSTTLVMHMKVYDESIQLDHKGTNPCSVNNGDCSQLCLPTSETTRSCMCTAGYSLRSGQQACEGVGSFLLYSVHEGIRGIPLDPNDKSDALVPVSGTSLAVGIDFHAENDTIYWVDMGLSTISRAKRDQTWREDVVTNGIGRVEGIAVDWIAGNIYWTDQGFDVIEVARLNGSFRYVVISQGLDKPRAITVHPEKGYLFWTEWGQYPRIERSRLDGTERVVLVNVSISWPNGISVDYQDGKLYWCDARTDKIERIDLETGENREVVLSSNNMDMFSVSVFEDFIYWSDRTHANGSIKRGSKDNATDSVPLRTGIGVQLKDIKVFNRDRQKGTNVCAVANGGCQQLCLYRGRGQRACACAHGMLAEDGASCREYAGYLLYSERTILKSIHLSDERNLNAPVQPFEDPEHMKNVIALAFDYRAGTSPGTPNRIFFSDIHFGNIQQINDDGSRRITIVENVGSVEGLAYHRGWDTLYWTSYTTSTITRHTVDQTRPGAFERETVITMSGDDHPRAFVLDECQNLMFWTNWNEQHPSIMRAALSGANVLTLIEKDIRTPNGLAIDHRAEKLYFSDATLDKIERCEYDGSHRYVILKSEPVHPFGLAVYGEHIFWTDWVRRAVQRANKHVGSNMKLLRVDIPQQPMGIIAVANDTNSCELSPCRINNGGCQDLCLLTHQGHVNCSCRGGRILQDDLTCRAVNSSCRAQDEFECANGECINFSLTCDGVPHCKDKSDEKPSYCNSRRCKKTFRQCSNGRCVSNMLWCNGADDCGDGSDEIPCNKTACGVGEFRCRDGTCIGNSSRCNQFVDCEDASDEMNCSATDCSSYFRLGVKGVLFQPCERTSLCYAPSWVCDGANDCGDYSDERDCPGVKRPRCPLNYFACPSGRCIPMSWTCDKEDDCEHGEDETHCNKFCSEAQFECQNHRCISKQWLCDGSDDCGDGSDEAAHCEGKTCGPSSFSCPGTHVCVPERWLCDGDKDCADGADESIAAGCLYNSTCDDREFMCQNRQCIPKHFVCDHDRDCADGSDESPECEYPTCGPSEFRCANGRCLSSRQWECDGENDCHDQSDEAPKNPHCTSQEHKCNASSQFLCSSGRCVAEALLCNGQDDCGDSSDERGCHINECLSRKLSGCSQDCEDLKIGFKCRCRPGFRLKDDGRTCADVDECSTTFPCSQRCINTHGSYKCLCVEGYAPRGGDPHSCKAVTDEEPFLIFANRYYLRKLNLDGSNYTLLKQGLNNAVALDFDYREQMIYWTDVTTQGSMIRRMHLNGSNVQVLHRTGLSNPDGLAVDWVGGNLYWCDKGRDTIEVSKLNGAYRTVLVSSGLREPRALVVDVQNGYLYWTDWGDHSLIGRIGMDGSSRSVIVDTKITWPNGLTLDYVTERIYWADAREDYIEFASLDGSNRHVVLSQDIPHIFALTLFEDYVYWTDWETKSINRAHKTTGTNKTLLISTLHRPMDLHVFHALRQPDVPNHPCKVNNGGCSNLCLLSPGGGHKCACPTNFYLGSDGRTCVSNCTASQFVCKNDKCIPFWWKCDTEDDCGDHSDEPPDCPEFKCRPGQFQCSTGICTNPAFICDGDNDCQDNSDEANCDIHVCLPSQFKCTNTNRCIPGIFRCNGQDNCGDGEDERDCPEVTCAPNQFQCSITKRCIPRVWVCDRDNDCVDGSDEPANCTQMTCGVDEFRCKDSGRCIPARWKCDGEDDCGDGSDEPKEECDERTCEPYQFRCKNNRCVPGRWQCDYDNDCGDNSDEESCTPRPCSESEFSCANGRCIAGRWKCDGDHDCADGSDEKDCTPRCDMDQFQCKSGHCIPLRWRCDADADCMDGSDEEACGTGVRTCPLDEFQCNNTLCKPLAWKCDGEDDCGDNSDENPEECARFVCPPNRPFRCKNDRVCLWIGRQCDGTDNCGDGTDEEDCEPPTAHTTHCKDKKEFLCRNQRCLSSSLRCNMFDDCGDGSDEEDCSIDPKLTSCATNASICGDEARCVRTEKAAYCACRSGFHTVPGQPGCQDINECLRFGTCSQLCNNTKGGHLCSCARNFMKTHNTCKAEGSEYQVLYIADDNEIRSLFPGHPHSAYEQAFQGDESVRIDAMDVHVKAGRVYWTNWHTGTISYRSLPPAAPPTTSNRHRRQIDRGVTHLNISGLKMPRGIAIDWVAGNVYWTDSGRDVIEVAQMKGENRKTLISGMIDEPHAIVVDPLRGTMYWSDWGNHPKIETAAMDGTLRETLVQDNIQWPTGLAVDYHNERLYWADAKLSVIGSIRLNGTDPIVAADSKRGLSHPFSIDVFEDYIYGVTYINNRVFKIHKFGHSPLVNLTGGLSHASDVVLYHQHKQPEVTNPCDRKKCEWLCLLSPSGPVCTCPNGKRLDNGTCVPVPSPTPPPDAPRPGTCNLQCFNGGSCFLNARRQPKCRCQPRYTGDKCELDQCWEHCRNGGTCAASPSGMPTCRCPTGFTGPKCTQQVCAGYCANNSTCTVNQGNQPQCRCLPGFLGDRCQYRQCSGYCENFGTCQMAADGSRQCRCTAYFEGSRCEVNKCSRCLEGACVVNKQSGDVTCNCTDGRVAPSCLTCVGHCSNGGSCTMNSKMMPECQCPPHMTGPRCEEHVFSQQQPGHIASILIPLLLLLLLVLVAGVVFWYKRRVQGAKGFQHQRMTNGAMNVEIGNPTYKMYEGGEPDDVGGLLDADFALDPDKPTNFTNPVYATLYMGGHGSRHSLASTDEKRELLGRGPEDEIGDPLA

[3] = tested on: LSR; experiment: Ligand blot of 125I-leptin on LSR complexes immunoprecipitated from PLC cells; type: binding, human; conditions: PLC cell lysates; complexes of 200 and 230 kDa
Protocol: FIGS. 4A, 4B, 4C, and 4D show LSR binding and degradation of ^125I-leptin in human hepatocytes, and the effect of 81B anti-LSR antibody. For FIG. 4A, PLC cells were lysed (3-T175 cm^2 flasks per condition) and immunoprecipitated with irrelevant or 81B anti-serum. The immunoprecipitates were washed, were separated on 10% SDS-polyacrylamide gels under nondenaturing conditions, and were transferred to nitrocellulose. Ligand blots using ^125I-leptin were then performed as described in FIG. 2. For FIG. 4B, confluent monolayers of PLC cells were incubated at 37° C. for 30 min with 100 nM insulin, were washed, and then were incubated for 30 min at room temperature in the presence of anti-LSR peptide 81B antibody (▪), or irrelevant (□) IgG. After this, the cells were incubated at 37° C. for 2 h with increasing concentrations of ^125I-leptin in Buffer A. The monolayers were washed, and the amount of ^125I-leptin degraded was determined as described herein. Results are shown as the mean of duplicate (irrelevant IgG) or triplicate (anti-LSR peptide IgG) determinations. FIG. 4C is a schematic diagram of the motifs found from the predicted protein sequence of LSR α cDNA. […] After washing and incubation with goat-anti-rabbit FITC-conjugated antibody, the cells were fixed and analyzed by flow cytometry using a FACSCalibur (Becton Dickinson). […]

[4] = tested on: LSR mRNA; experiment: Northern blot of LSR mRNA in leptin-treated rat hepatocytes; type: cell-based; conditions: rat hepatocytes after 30 min leptin treatment
Protocol: Northern blots were performed as described previously using as a probe clone 18251 described above (Yen F. T., Masson M., Clossais-Besnard N., Andre P., Grosset J. M., Bougueleret L., Dumas J. B., Guerassimenko, O., and Bihain B. E. (1999). J Biol Chem 274, 13390-13398).

Substance: leptin: plasma protein of 16 kDa produced by adipocytes; recombinant human or mouse leptin, species depends on the experiment
- degradation of LDL by the LDL-receptor [1]: no detectable effect
- degradation of activated α2-macroglobulin, the preferred LRP ligand [2]: no detectable effect
- binding of 125I-leptin to multimeric complexes precipitated by the 81B antibody [3]: binds directly
- LSR mRNA levels (Northern blots) [4]: did not increase mRNA levels significantly
